Measured values from US20040146519A1.

Columns and labels:
HLA-DRB1*1302 (human) = biological target: T1, HLA-DRB1*1302 (human); assay: competition with 125I probe peptide, purified HLA; conditions: remark: other sources report otherwise
T1 chain 1: not shown
T1 chain 2: not shown

HLA-DRB1*1501 (human) = biological target: T2, HLA-DRB1*1501 (human); assay: competition with 125I probe peptide, purified HLA; conditions: remark: other sources report otherwise
T2 chain 1: not shown
T2 chain 2: not shown

HLA-A*3101 (human) = assay: competition with 125I probe peptide for purified HLA; conditions: remark: other sources report otherwise
HLA-B*5401 (human) = assay: inhibition of 125I probe peptide, purified HLA; conditions: remark: other sources report otherwise
HLA-B*5301 (human) = assay: inhibition of 125I probe peptide, purified HLA; conditions: remark: other sources report otherwise
HLA-B*0702 (human) = assay: inhibition of 125I probe peptide, purified HLA; conditions: remark: other sources report otherwise
HLA-B*5101 (human) = assay: inhibition of 125I probe peptide, purified HLA; conditions: remark: other sources report otherwise
HLA-A*0201 (human) = assay: competitive inhibition of 125I probe peptide, purified HLA
HLA-A*0206 (human) [1] = assay: competition with 125I probe peptide for purified HLA; conditions: remark: other sources report otherwise
HLA-A*0206 (human) [2] = assay: inhibition of 125I probe peptide, purified HLA; conditions: remark: other sources report otherwise

Which results are given for RWCIPWQRLLLTASL [CEA.10]?
IC50 (HLA-DRB1*1302 (human)): 318 nM; IC50 (HLA-DRB1*1501 (human)): 827 nM

For RTLTLFNVTR [CEA.554], which IC50 (HLA-A*3101 (human)) is on record?
Its IC50 is 5 nM.

YPNASLLI [CEA.102] was tested. Which IC50 (HLA-B*5401 (human)) did it give?
Its IC50 is 137 nM.

What about the IC50 (HLA-B*5301 (human)) of the same binder?
The IC50 was 40 nM.

How did the IC50 (HLA-B*5401 (human)) turn out when IPWQRLLLTA [CEA.13, 10 AA] was run?
The IC50 was 3.2 nM.

With RTLTLLSVTR [CEA.376] as the binder, how does the IC50 (HLA-A*3101 (human)) read?
Its IC50 is 6.2 nM.

Which results are given for LPQHLFGYSI [CEA.58.I10]?
IC50 (HLA-B*5301 (human)): 930 nM; IC50 (HLA-B*0702 (human)): 212 nM

How did the IC50 (HLA-B*5401 (human)) turn out when IPWQRLLLTI [CEA.13.I10] was run?
The IC50 was 270 nM.

What about the IC50 (HLA-B*5101 (human)) of the same binder?
The IC50 was 19 nM.

And the IC50 (HLA-B*0702 (human))?
Its IC50 is 39 nM.

How did the IC50 (HLA-A*3101 (human)) turn out when RVLTLFNVTR [CEA.554.V2] was run?
The IC50 was 9 nM.

How did the relative binding ratio (IC50 standard/IC50 peptide) (HLA-A*0201 (human)) turn out when SLLTFWNPPT [CEA peptide, position 23, 10 amino acids] was run?
Its relative binding ratio (IC50 standard/IC50 peptide) is 0.0022.

With YLSGANLNV [CEA.605V9] as the binder, how does the IC50 (HLA-A*0206 (human) [1]) read?
Its IC50 is 80 nM.

For YLSGANLNV [CEA.605.V9], which IC50 (HLA-A*0206 (human) [2]) is on record?
The IC50 was 80 nM.
